Residue numbers refer to the chain shown, from its start.

One series has as its target T1, CasX 491.
T1 chain: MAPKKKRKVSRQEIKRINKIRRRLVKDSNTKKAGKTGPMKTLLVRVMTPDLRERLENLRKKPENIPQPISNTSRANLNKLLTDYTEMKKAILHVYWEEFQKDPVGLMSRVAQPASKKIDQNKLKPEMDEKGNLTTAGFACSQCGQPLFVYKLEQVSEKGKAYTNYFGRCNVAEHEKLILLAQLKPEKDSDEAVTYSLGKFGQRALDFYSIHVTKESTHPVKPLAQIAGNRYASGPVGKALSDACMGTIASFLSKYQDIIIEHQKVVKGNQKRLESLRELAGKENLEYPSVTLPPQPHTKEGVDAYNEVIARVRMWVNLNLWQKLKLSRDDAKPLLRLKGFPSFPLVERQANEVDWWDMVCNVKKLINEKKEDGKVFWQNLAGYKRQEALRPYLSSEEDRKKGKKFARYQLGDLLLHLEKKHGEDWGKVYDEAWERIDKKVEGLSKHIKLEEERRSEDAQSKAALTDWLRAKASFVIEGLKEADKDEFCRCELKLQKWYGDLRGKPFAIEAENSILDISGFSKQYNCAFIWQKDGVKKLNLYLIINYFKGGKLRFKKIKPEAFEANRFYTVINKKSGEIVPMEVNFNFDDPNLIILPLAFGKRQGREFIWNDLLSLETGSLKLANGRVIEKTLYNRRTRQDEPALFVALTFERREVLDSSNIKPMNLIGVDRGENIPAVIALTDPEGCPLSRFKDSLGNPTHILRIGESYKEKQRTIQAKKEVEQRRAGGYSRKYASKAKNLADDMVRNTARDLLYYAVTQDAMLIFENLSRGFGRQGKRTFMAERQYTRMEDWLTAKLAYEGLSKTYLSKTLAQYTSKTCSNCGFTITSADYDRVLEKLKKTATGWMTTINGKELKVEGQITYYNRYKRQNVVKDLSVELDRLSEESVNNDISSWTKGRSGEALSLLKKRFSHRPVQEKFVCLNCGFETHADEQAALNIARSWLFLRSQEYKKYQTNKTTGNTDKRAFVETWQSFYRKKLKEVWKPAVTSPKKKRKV
Briefly: cell_activity; lentiviral iGFP editing; TTC PAM.

In a further series the target is T2, CasX 488.
T2 chain: T1 chain with L410F, V669I
The series can be described thus: cell_activity; lentiviral iGFP editing; TTC PAM.

For a further series, the target named is T3, CasX 438 (in cells) (Planctomycetes).
T3 chain: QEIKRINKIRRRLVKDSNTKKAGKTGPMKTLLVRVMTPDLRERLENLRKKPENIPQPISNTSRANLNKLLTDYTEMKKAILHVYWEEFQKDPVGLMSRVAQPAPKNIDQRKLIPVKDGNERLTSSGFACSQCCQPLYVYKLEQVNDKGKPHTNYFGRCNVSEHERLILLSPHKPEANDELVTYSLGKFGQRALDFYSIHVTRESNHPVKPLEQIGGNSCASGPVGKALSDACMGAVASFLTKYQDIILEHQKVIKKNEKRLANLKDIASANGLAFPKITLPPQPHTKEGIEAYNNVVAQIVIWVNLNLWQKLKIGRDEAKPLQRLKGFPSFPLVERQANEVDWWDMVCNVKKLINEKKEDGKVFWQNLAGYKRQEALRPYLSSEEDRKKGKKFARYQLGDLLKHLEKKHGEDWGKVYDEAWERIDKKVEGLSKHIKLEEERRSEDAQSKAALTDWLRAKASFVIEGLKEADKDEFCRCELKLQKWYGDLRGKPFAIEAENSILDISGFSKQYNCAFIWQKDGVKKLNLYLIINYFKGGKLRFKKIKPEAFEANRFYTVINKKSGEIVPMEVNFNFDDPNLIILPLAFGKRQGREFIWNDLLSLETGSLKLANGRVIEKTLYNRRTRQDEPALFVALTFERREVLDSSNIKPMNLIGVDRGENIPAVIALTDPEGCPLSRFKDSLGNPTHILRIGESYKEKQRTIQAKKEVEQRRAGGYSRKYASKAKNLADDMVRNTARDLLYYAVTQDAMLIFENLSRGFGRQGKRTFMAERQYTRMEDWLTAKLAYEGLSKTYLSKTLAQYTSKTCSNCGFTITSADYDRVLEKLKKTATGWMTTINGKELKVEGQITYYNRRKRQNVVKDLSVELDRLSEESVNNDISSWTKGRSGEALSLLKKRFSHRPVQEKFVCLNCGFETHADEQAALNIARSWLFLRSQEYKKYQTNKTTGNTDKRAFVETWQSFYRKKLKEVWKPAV
Briefly: cell_activity; lentiviral iGFP editing; TTC PAM.

The target in a further series is CasX 438 (Planctomycetes). Briefly: cleavage_in_vitro; kcleave; TTC PAM. The conditions noted are these: tags: N-terminal SV40 NLS, C-terminal NLS, TEV site and twin Strep tag; label: fluorescent. Here is the method:
(§1) In vitro cleavage assays were performed essentially as described in Example 19, using CasX 2 (SED ID NO:2), CasX 119, and CasX 438 complexed with single guide 174 with spacer 7.37 targeted against B2M. Fluorescently labeled dsDNA targets that would be complementary with a 7.37 spacer and either a ITC, CTC, CTC, or ATC PAM were used (The DNA sequences used to generate each dsDNA substrate are shown in Table 29. The PAM sequences for each are bolded. TS—target strand. NTS—Non-target strand). Target DNA was incubated with a 20-fold excess of the indicated RNP and the amount of cleaved target was determined at the indicated. time points. The monophasic fit of the combined replicates is shown. During the assay, samples were taken at 0.25, 0.5, 1, 2, 5, 10, 30, and 60 minutes. Gels were imaged with an Amersham Typhoon and quantified using the IQTL 8,2 software. Apparent first-order rate constants for non-target strand cleavage (kcleave) were determined for each Casx:sgRNA complex on each target. Rate constants for targets with non-TTC PAM were compared to the TIC PAM target to determine whether the relative preference for each PAM was altered for a given CasX variant. The results are shown in FIG. 73 (the monophasic fit of the combined replicates is shown) and Table 30. […]

Series [1] has as its target CasX 119 (L379R+A708K+[P793]) (Planctomycetes). The series can be described thus: cleavage_in_vitro; kcleave; TTC PAM. The conditions noted are these: tags: N-terminal SV40 NLS, C-terminal NLS, TEV site and twin Strep tag; label: fluorescent. The procedure: as §1

CasX 119 (L379R+A708K+[P793]) (Planctomycetes), sequence (chain, as listed by the source L379R A708K L379R A708K): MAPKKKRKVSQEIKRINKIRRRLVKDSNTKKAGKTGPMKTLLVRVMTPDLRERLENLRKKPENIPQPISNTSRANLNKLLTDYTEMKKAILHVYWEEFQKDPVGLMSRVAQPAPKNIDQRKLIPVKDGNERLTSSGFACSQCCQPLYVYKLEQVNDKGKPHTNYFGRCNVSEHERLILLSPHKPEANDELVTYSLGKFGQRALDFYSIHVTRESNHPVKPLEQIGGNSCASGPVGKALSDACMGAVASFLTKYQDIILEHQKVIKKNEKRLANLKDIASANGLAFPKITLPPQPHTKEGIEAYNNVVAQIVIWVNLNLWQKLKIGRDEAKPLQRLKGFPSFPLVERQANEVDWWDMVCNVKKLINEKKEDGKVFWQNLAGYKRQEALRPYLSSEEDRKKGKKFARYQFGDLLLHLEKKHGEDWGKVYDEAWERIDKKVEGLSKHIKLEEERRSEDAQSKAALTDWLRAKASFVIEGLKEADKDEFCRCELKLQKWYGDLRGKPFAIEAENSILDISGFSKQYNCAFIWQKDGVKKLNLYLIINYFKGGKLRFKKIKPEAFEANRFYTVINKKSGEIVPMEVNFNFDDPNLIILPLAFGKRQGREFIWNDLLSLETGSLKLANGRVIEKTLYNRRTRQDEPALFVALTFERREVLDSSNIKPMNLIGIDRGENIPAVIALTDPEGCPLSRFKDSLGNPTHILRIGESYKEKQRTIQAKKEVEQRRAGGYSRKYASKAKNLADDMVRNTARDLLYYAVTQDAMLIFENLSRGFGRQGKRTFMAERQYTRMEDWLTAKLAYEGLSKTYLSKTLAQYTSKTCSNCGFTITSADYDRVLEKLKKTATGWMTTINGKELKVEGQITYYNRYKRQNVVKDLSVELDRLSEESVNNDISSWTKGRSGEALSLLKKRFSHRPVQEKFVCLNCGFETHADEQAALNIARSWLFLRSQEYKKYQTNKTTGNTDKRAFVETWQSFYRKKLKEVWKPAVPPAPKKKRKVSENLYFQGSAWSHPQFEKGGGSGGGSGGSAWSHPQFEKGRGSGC
CasX 438 (Planctomycetes), sequence (chain, as listed by the source): as the sequence (chain, as listed by the source L379R A708K L379R A708K) above, with F408L, L413K, I667V, Y865R counted along it

B1: scaffold 174 + spacer 4.77 ; EGFP E7/4.77 target (ssRNA ; dsDNA)
RNA: ACUGGCGCUUUUAUCUGAUUACUUUGAGAGCCAUCACCAGCGACUAUGUCGUAGUGGGUAAAGCUCCCUCUUCGGAGGGAGCAUCAAAGUCAAGUCCGCCAUGCCCGAA
DNA 1: TCAAGTCCGCCATGCCCGAA
DNA 2: TTCGGGCATGGCGGACTTGA
For B1, the binding signal with CasX 491 is 3.03 fold vs CasX 119; with CasX 488, 2.43 fold vs CasX 119.

B2: scaffold 174 + spacer 4.76 ; EGFP E6/4.76 target (ssRNA ; dsDNA)
RNA: ACUGGCGCUUUUAUCUGAUUACUUUGAGAGCCAUCACCAGCGACUAUGUCGUAGUGGGUAAAGCUCCCUCUUCGGAGGGAGCAUCAAAGUGUGGUCGGGGUAGCGGCUG
DNA 1: TGTGGTCGGGGTAGCGGCTG
DNA 2: CAGCCGCTACCCCGACCACA
For B2, the binding signal turned out to be 1.55 fold vs CasX 119 with CasX 491, 1.41 fold vs CasX 119 with CasX 488 and 1.22 fold vs CasX 119 with CasX 438 (in cells).

B3: sgRNA 174.7.37 ; 7.37 TTC PAM target (ssRNA ; dsDNA)
RNA: ACUGGCGCUUUUAUCUGAUUACUUUGAGAGCCAUCACCAGCGACUAUGUCGUAGUGGGUAAAGCUCCCUCUUCGGAGGGAGCAUCAAAGGGCCGAGAUGUCUCGCUCCG
DNA 1: TGAAGCTGACAGCATTCGGGCCGAGATGTCTCGCTCCGTGGCCTTAGCTGTGCTCGCGCT
DNA 2: AGCGCGAGCACAGCTAAGGCCACGGAGCGAGACATCTCGGCCCGAATGCTGTCAGCTTCA
For the molecule B3, the activity was 4.94 min⁻¹ with CasX 438 and 8.33 min⁻¹ in series [1].

The values are drawn from patent publication US20220220508, “ENGINEERED CASX SYSTEMS” (Scribe Therapeutics Inc., published 2022).
